Measured values reported in IntAct's records for PubMed 10545207.

B1: GTP-binding protein Rit2 (Mus musculus), P70425 (parent)
chain: MEVENEAHCCPGSSSGGSREYKVVMLGAGGVGKSAVTMQFISHQFPDYHDPTIEDAYKTQVRIDNEPAYLDILDTAGQAEFTAMREQYMRGGEGFIICYSVTDRQSFQEAAKFKELIFQVRHTYEIPLVLVGNKIDLEQFRQVSTEEGMNLARDYNCAFFETSAALRFGIDDAFQGLVREIRRKESMLSLVERKLKRKDSLWKKIKASLKKKRENML
B2: GTP-binding protein Rit2 (Mus musculus), P70425 (parent)
chain: B1 chain
partner: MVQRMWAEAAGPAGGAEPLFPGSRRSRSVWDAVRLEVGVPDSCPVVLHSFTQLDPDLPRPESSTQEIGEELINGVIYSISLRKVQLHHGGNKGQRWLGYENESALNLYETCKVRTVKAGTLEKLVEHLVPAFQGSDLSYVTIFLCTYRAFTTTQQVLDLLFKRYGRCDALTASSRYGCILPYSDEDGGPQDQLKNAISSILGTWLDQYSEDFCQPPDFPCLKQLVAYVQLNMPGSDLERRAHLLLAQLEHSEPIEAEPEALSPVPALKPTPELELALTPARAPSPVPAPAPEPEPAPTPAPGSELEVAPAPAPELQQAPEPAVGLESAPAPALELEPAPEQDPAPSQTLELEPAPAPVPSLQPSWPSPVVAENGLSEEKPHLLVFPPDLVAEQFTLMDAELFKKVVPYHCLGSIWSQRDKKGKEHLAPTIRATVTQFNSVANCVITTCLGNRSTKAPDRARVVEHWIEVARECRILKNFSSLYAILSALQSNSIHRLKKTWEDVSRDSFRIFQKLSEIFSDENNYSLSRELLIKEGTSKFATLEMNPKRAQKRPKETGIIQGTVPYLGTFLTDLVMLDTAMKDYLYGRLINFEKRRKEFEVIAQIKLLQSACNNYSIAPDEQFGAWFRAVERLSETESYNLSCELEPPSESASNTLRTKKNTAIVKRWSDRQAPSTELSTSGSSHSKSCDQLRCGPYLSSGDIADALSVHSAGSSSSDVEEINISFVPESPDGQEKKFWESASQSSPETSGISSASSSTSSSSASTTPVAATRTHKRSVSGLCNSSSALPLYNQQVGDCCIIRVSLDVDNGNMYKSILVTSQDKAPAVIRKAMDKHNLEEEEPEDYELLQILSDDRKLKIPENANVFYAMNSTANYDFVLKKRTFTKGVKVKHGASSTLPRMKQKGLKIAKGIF

Variants of: B1
Details: with rlf_human RLF

| effect of a mutation on the interaction | Variant |
| --- | --- |
| decreasing interaction | S34N |

Variants of: B1
Details: with afad_human AFDN

| effect of a mutation on the interaction | Variant |
| --- | --- |
| decreasing interaction | S34N |

Variants of: B2
Details: with gnds_human RALGDS

| effect of a mutation on the interaction | Variant |
| --- | --- |
| decreasing interaction | S34N |
